Test results published in patent publication US6406886.

Key:
Test in all cases: cell-based or functional assay
[1] = target: yeast Rsr1 (1st to 272nd residues) (yeast) (UniProt P13856)
[2] = target: Rac1
[3] = target: Ran
[4] = target: human Ha-Ras (1st to 189th residues) (human) (UniProt P01112)
[5] = target: human Rap1A (Glu63) (1st to 184th residues) (human) (UniProt P62834)
[6] = target: human RhoA (1st to 193 residues) GST fusion protein (human) (UniProt P61586)
Sequence of human RhoA (1st to 193 residues) GST fusion protein (human) (P61586 whole entry, form in doubt, the tested form may be a part): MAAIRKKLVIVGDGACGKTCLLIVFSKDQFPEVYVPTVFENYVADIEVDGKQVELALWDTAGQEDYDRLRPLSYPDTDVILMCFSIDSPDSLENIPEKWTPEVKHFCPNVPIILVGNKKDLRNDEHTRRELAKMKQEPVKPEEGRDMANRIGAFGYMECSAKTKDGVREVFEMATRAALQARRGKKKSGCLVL

Sequence of human Ha-Ras (1st to 189th residues) (human) (P01112 whole entry, form in doubt): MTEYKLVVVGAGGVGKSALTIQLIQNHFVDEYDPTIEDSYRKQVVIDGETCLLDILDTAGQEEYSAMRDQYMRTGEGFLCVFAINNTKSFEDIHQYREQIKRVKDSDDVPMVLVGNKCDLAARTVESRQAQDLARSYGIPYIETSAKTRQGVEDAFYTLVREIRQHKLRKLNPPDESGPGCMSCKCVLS
Sequence of human Rap1A (Glu63) (1st to 184th residues) (human) (P62834 whole entry, the tested form may be a part): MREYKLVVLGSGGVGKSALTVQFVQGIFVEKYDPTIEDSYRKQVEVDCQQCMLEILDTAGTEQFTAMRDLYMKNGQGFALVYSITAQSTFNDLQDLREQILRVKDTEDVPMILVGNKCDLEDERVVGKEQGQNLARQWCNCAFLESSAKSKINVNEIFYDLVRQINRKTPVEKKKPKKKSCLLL
Sequence of yeast Rsr1 (1st to 272nd residues) (yeast) (P13856 whole entry, form in doubt): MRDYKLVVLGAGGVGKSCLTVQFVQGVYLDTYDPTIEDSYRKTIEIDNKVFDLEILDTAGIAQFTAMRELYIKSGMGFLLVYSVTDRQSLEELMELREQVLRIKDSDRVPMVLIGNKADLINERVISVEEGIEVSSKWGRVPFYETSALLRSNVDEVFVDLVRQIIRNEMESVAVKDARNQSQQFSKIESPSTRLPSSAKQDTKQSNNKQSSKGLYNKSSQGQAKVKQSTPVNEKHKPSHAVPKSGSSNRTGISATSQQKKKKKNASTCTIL

Stimulation (times) of GTPase activity [1]: 16 times | Stimulation (times) of GTPase activity [2]: 0 times | EC16 (µg/ml), activation of Ran GTPase [3]: 25 µg/mL | Stimulation (times) of GTPase activity [4]: 0.3 times | Stimulation (times) of GTPase activity [5]: 6 times | Stimulation (times) of GTPase activity [6]: 0.6 times
B1: Span-N/GST fusion protein (protein, not shown: a dimerising Fc or GST)
chain: MYNNQEAGAAFMQFLTLLGDVVRLKGFESYRAQLDTKTDSTGTHSLYTTYQDHEIMFHVSTMLPYTPNNQQQLLRKRHIGNDIVTIVFQEPGSKPFCPTTIRSHFQHVFLVVRAHAPCTPHTSYRVAVSRTQDTPAFGPALPEGGGPFAANADFRAFLLAKALNGEQAAGHARQFHAMATRTRQQYLQDL
